How the values were obtained:
[1] = molecular target: HER3 ECD R426A (human) (UniProt P21860); test: FACS, HER3 ECD alanine mutants on cells
[2] = molecular target: HER3 ECD F409A (human) (UniProt P21860); test: FACS, HER3 ECD alanine mutants on cells
Sequence of HER3 ECD F409A (human) (P21860 20-643 F409A): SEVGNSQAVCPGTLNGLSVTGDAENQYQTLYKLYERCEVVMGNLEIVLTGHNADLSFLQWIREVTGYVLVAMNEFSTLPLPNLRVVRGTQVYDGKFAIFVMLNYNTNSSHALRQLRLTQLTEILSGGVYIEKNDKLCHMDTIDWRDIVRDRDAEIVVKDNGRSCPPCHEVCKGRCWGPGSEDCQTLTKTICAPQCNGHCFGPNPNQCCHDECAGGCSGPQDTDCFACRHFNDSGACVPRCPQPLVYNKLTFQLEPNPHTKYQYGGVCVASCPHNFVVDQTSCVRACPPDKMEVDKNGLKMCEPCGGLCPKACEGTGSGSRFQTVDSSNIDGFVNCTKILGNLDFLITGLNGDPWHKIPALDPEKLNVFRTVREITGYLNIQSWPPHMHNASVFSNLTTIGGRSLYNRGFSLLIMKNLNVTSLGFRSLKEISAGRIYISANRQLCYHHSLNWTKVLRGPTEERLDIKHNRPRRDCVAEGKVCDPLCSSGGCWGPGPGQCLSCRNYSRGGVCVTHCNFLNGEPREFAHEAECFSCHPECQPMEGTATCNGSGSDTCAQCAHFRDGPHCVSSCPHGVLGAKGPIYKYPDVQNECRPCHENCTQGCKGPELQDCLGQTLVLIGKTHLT

Sequence of HER3 ECD R426A (human) (P21860 20-643 R426A): as the sequence (P21860 20-643 F409A) above, with A390F, R407A counted along it

Substance: control mAb 66223 (antibody)
- Control mAb binding % of wt binding (% of wt binding) [1]: 93.1
- Control mAb binding % of wt binding (% of wt binding) [2]: 79.6

— patent publication US10844127
